Our source for the fold reduction in pseudoviral neutralization titre against wild-type Delta and fold reduction in pseudoviral neutralisation titre values is article doi:10.1101/2022.07.14.500063.

The target in test [1] is Delta RBD+L455S (SARS-CoV-2) (UniProt P0DTC2).
Test [2] concerns the target Delta+L455F Spike on pseudotyped lentivirus (SARS-CoV-2) (UniProt P0DTC2).
Test [3] concerns the target Delta+Y453F Spike on pseudotyped lentivirus (SARS-CoV-2) (UniProt P0DTC2).
The target of test [4] is Delta RBD+E406D (SARS-CoV-2) (UniProt P0DTC2).
Test [5] deals with Delta RBD+E406Q (SARS-CoV-2) (UniProt P0DTC2).
Test [6] concerns the target Delta RBD+L455S (SARS-CoV-2) (UniProt P0DTC2). The source holds these as a separate data set.

Consider casirivimab (REGN10933) (antibody), for which the fold reduction in pseudoviral neutralization titre against wild-type Delta in test [1] was determined as 155 fold; in test [2], 17 fold; in test [3], 16 fold. In addition, the fold reduction in pseudoviral neutralisation titre turned out to be 2 fold in test [4], 12 fold in test [5] and 65 fold in test [6].
